As usually defined, the Kd is a measure of binding affinity in units of concentration. Low values mean tighter binding, high ones weaker binding. The term koff denotes a measure of how fast the partners let go of each other. A high value points to fast dissociation. The kon is the second-order rate constant of association. Read a low kon as slow association.

The values that follow come from patent publication US20250353917A1 (SYSTIMMUNE, published 2025).

Test [1] has as its target T1, EGFR on BxPC-3 cells (UniProt P00533 25-1210, limits assumed). The test is described as follows: cell-based or functional assay.
The target in test [2] is T1, EGFR on BxPC-3 cells. Nature of the test: cell-based or functional assay. The source holds these as a separate data set.
The target in test [3] is T2, His-tagged human EGFR (human, UniProt P00533 25-645, limits assumed).
T2 construct: also called huEGFR
The test is described as follows: BLI (Octet), scFv-His coupled to AR2G sensors, His-tagged human EGFR in solution, 1:1 global fit. (In general: Biolayer interferometry detects binding as a change in optical thickness at a sensor tip.)
Experimental: (§1) Fc-containing protein was captured to anti-human Fc (AHC) sensor tips by loading for 180 seconds at 10 μg/ml. Alternatively, His-tagged proteins were covalently coupled at 10 ug/ml to AR2G tips using manufacturer protocol. After a 60-second baseline step, a 180- to 300-second association phase with serial dilutions (0-200 nM; 1:2.5 dilution factor) or a single 100 nM concentration of purified human EGFR in assay buffer (phosphate-buffered saline containing 0.1% BSA, 0.05% Tween20) was performed, followed by a 300- to 600—second dissociation phase in assay buffer. Regeneration was achieved using 10 mM glycine, pH 1.5. Binding curves were globally fit to a 1:1 model to extract the dissociation constants, KD. Binding kinetics for each protein were assessed in duplicate, with tabulated values reported as average±standard deviation.

The target in test [4] is T2, His-tagged human EGFR. The test is described as above. The source holds these as a separate data set.
Experimental: as §1

Like-named read-outs stand apart in the source and are kept apart here.

B1: SI-68P17 (other)
heavy: DVVMTQSPSTLSASVGDRVTINCQASESISSWLAWYQQKPGKAPKLLIYEASKLASGVPSRFSGSGSGTEFTLTISSLQPDDFATYYCQGYFYFISRTYVNSFGGGTKVEIKGGGGSGGGGSGGGGSGGGGSEVQLVESGGGLVQPGGSLRLSCAASGFTISTNAMSWVRQAPGKGLEWIGVITGRDITYYASWAKGRFTISRDNSKNTLYLQMNSLRAEDTAVYYCARDGGSSAITSNNIWGQGTLVTVSSGGGGSGGGGSQVQLQQSGPGLVKPSETLSITCTVSGFSLTNYGVHWIRQAPGKGLEWLGVIWSGGNTDYNTPFTSRFTITKDNSKNQVYFKLRSVRADDTAIYYCARALTYYDYEFAYWGQGTLVTVSSASTKGPSVFPLAPSSKSTSGGTAALGCLVKDYFPEPVTVSWNSGALTSGVHTFPAVLQSSGLYSLSSVVTVPSSSLGTQTYICNVNHKPSNTKVDKRVEPKSCDKTHTCPPCPAPEAAGGPSVFLFPPKPKDTLMISRTPEVTCVVVDVSHEDPEVKFNWYVDGVEVHNAKTKPREEQYNSTYRVVSVLTVLHQDWLNGKEYKCAVSNKALPAPIEKTISKAKGQPREPQVYTLPPSRDELTKNQVSLSCAVKGFYPSDIAVEWESNGQPENNYKTTPPVLDSDGSFFLVSKLTVDKSRWQQGNVFSCSVMHEALHNHYTQKSLSLSPGGGGGSGGGGSDVVMTQSPSSVSASVGDRVTITCQASQNIRTYLSWYQQKPGKAPKLLIYAAANLASGVPSRFSGSGSGTDFTLTISDLEPGDAATYYCQSTYLGTDYVGGAFGGGTKLTVLGGGGSGGGGSGGGGSGGGGSEVQLVESGGGLVQPGGSLRLSCTASGFTISSYHMQWVRQAPGKGLEYIGTISSGGNVYYASSARGRFTISRPSSKNTVDLQMNSLRAEDTAVYYCARDSGYSDPMWGQGTLVTVSS
light: ENVLTQSPASLSASPGERVTITCSASSSVSYMHWYQQKPGQAPKLWIYDTSKLASGVPSRFSGSGSGNDHTLTISSMEPEDFATYYCFQGSVYPFTFGQGTKVTVLGGGGSGGGGSGGGGSGGGGSQVTLKESGPGLVQPGQTLSLTCAFSGFSLSTSGMGVGWIRQPPGKGLEWLAHIWWDDDKRYNPALKSRLTISKDTSKNQVYLQMNSLDAEDTAVYYCARMELWSYYFDYWGQGTLVTVSSGGGGSGGGGSEIVLTQSPSTLSVSPGERATFSCRASQSIGTNIHWYQQKPGKPPRLLIKYASESISGIPDRFSGSGSGTEFTLTISSVQSEDFAVYYCQQNNNWPTTFGPGTKLTVLRTVAAPSVFIFPPSDEQLKSGTASVVCLLNNFYPREAKVQWKVDNALQSGNSQESVTEQDSKDSTYSLSSTLTLSKADYEKHKVYACEVTHQGLSSPVTKSFNRGECGGDKTHTCPPCPAPEAAGGPSVFLFPPKPKDTLMISRTPEVTCVVVDVSHEDPEVKFNWYVDGVEVHNAKTKPREEQYNSTYRVVSVLTVLHQDWLNGKEYKCAVSNKALPAPIEKTISKAKGQPREPQVYTLPPSRDELTKNQVSLWCLVKGFYPSDIAVEWESNGQPENNYKTTPPVLDSDGSFFLYSKLTVDKSRWQQGNVFSCSVMHEALHNRFTQKSLSLSPGGGGGSGGGGSDIQMTQSPSTLSASVGDRVTITCQASQSISSHLNWYQQKPGKAPKLLIYKASTLASGVPSRFSGSGSGTEFTLTISSLQPDDFATYYCQQGYSWGNVDNVFGGGTKVTVLGGGGSGGGGSGGGGSGGGGSEVQLLESGGGLVQPGGSLSLSCAASGFSFSSGYDMCWVRQAPGKGLEWIACIAAGSAGITYDANWAKGRFTISRDNSKNTLYLQMNSLRAEDTAVYYCARSAFSFDYAMDLWGQGTLVTVSS
Turning to B1, the “TDCC EC50 (pM)” value with EGFR on BxPC-3 cells [1] worked out at 0.322 pM.

B2: SI-68P13 (other)
heavy: EIVLTQSPSTLSVSPGERATFSCRASQSIGTNIHWYQQKPGKPPRLLIKYASESISGIPDRFSGSGSGTEFTLTISSVQSEDFAVYYCQQNNNWPTTFGPGTKLTVLGGGGSGGGGSGGGGSGGGGSQVQLQQSGPGLVKPSETLSITCTVSGFSLTNYGVHWIRQAPGKGLEWLGVIWSGGNTDYNTPFTSRFTITKDNSKNQVYFKLRSVRADDTAIYYCARALTYYDYEFAYWGQGTLVTVSSGGGGSGGGGSEVQLVESGGGLVQPGGSLRLSCAASGFTISTNAMSWVRQAPGKGLEWIGVITGRDITYYASWAKGRFTISRDNSKNTLYLQMNSLRAEDTAVYYCARDGGSSAITSNNIWGQGTLVTVSSASTKGPSVFPLAPSSKSTSGGTAALGCLVKDYFPEPVTVSWNSGALTSGVHTFPAVLQSSGLYSLSSVVTVPSSSLGTQTYICNVNHKPSNTKVDKRVEPKSCDKTHTCPPCPAPEAAGGPSVFLFPPKPKDTLMISRTPEVTCVVVDVSHEDPEVKFNWYVDGVEVHNAKTKPREEQYNSTYRVVSVLTVLHQDWLNGKEYKCAVSNKALPAPIEKTISKAKGQPREPQVYTLPPSRDELTKNQVSLSCAVKGFYPSDIAVEWESNGQPENNYKTTPPVLDSDGSFFLVSKLTVDKSRWQQGNVFSCSVMHEALHNHYTQKSLSLSPGGGGGSGGGGSDVVMTQSPSSVSASVGDRVTITCQASQNIRTYLSWYQQKPGKAPKLLIYAAANLASGVPSRFSGSGSGTDFTLTISDLEPGDAATYYCQSTYLGTDYVGGAFGGGTKLTVLGGGGSGGGGSGGGGSGGGGSEVQLVESGGGLVQPGGSLRLSCTASGFTISSYHMQWVRQAPGKGLEYIGTISSGGNVYYASSARGRFTISRPSSKNTVDLQMNSLRAEDTAVYYCARDSGYSDPMWGQGTLVTVSS
light: ENVLTQSPASLSASPGERVTITCSASSSVSYMHWYQQKPGQAPKLWIYDTSKLASGVPSRFSGSGSGNDHTLTISSMEPEDFATYYCFQGSVYPFTFGQGTKVTVLGGGGSGGGGSGGGGSGGGGSQVTLKESGPGLVQPGQTLSLTCAFSGFSLSTSGMGVGWIRQPPGKGLEWLAHIWWDDDKRYNPALKSRLTISKDTSKNQVYLQMNSLDAEDTAVYYCARMELWSYYFDYWGQGTLVTVSSGGGGSGGGGSDVVMTQSPSTLSASVGDRVTINCQASESISSWLAWYQQKPGKAPKLLIYEASKLASGVPSRFSGSGSGTEFTLTISSLQPDDFATYYCQGYFYFISRTYVNSFGGGTKVEIKRTVAAPSVFIFPPSDEQLKSGTASVVCLLNNFYPREAKVQWKVDNALQSGNSQESVTEQDSKDSTYSLSSTLTLSKADYEKHKVYACEVTHQGLSSPVTKSFNRGECGGDKTHTCPPCPAPEAAGGPSVFLFPPKPKDTLMISRTPEVTCVVVDVSHEDPEVKFNWYVDGVEVHNAKTKPREEQYNSTYRVVSVLTVLHQDWLNGKEYKCAVSNKALPAPIEKTISKAKGQPREPQVYTLPPSRDELTKNQVSLWCLVKGFYPSDIAVEWESNGQPENNYKTTPPVLDSDGSFFLYSKLTVDKSRWQQGNVFSCSVMHEALHNRFTQKSLSLSPGGGGGSGGGGSDIQMTQSPSTLSASVGDRVTITCQASQSISSHLNWYQQKPGKAPKLLIYKASTLASGVPSRFSGSGSGTEFTLTISSLQPDDFATYYCQQGYSWGNVDNVFGGGTKVTVLGGGGSGGGGSGGGGSGGGGSEVQLLESGGGLVQPGGSLSLSCAASGFSFSSGYDMCWVRQAPGKGLEWIACIAAGSAGITYDANWAKGRFTISRDNSKNTLYLQMNSLRAEDTAVYYCARSAFSFDYAMDLWGQGTLVTVSS
B2: in the test with EGFR on BxPC-3 cells [1], the “TDCC EC50 (pM)” value is 0.259 pM.

B3: SI-79X3 (bispecific antibody, human IgG1, kappa)
heavy 1: QVQLQQSGPGLVKPSETLSITCTVSGFSLTNYGVHWIRQAPGKGLEWLGVIWSGGNTDYNTPFTSRFTITKDNSKNQVYFKLRSVRADDTAIYYCARALTYYDYEFAYWGQGTLVTVSSASTKGPSVFPLAPSSKSTSGGTAALGCLVKDYFPEPVTVSWNSGALTSGVHTFPAVLQSSGLYSLSSVVTVPSSSLGTQTYICNVNHKPSNTKVDKRVEPKSCDKTHTCPPCPAPEAAGAPSVFLFPPKPKDTLMISRTPEVTCVVVDVSHEDPEVKFNWYVDGVEVHNAKTKPREEQYNSTYRVVSVLTVLHQDWLNGKEYKCAVSNKALPAPIEKTISKAKGQPREPQVYTLPPSRDELTKNQVSLTCLVKGFYPSDIAVEWESNGQPENNYKTTPPVLDSDGSFFLYSRLTVDKSRWQQGNVFSCSVMHEALHNHYTQKSLSLSPG
heavy 2: not shown
light 1: EIVLTQSPSTLSVSPGERATFSCRASQSIGTNIHWYQQKPGKPPRLLIKYASESISGIPDRFSGSGSGTEFTLTISSVQSEDFAVYYCQQNNNWPTTFGPGTKLTVLRTVAAPSVFIFPPSDEQLKSGTASVVCLLNNFYPREAKVQWKVDNALQSGNSQESVTEQDSKDSTYSLSSTLTLSKADYEKHKVYACEVTHQGLSSPVTKSFNRGEC
light 2: not shown
As to B3, the “*EC50 (pM), TDCC, depletion of luciferized BxPC3 cells with activated T cells” value with EGFR on BxPC-3 cells [2] was 20.3 pM.

B4: SI-79R2 (scFv)
scFv: EIVMTQSPSTLSASVGDRVIITCRASQSIGTNIHWYQQKPGKAPKLLIYYASESISGIPSRFSGSGSGAEFTLTISSLQPDDFATYYCQQNNNWPTTFGQGTKLTVLGGGGSGGGGSGGGGSGGGGSEVQLVESGGGLVQPGGSLRLSCTVSGFSLTNYGVHWVRQAPGKGLEWVGVIWSGGNTDYNTPFTSRFTISRDTSKNTVYLQMNSLRAEDTAVYYCARALTYYDYEFAYWGQGTLVTVSSGSHHHHHH
notes: the entry holds the whole construct; also called H1 scFv-6His; humanized scFv
In the case of B4, the Kd with His-tagged human EGFR [3] turned out to be 12 nM. In the test with His-tagged human EGFR [4], this molecule gave a Kd of 12 nM, a koff of 0.0107 s⁻¹ and a kon of 894000 M⁻¹ s⁻¹.
